Measured values taken from PMC10663500, “High-throughput analysis system of interaction kinetics for data-driven antibody design” (Scientific Reports, 2023).

B1: toripalimab Fab H.T103Y (Fab, V domains shown)
VH: QGQLVQSGAEVKKPGASVKVSCKASGYTFTDYEMHWVRQAPIHGLEWIGVIESETGGTAYNQKFKGRVTITADKSTSTAYMELSSLRSEDTAVYYCAREGITYVATTYYWYFDVWGQGTTVTVSS
VL: DVVMTQSPLSLPVTLGQPASISCRSSQSIVHSNGNTYLEWYLQKPGQSPQLLIYKVSNRFSGVPDRFSGSGSGTDFTLKISRVEAEDVGVYYCFQGSHVPLTFGQGTKLEIK
notes: heavy chain of Sm3 with this change; numbers count from the chain's first residue; as the light chain of Sm3; source: Brevibacillus, culture supernatant (ammonium sulfate precipitate); not shown: 6xHis, C-terminal, kept; 6xHN, C-terminal, kept
B2: toripalimab Fab H.D113A (Fab, V domains shown)
VH: QGQLVQSGAEVKKPGASVKVSCKASGYTFTDYEMHWVRQAPIHGLEWIGVIESETGGTAYNQKFKGRVTITADKSTSTAYMELSSLRSEDTAVYYCAREGITTVATTYYWYFAVWGQGTTVTVSS
VL: DVVMTQSPLSLPVTLGQPASISCRSSQSIVHSNGNTYLEWYLQKPGQSPQLLIYKVSNRFSGVPDRFSGSGSGTDFTLKISRVEAEDVGVYYCFQGSHVPLTFGQGTKLEIK
notes: as for B1
B3: toripalimab Fab H.Y111A (Fab, V domains shown)
VH: QGQLVQSGAEVKKPGASVKVSCKASGYTFTDYEMHWVRQAPIHGLEWIGVIESETGGTAYNQKFKGRVTITADKSTSTAYMELSSLRSEDTAVYYCAREGITTVATTYYWAFDVWGQGTTVTVSS
VL: DVVMTQSPLSLPVTLGQPASISCRSSQSIVHSNGNTYLEWYLQKPGQSPQLLIYKVSNRFSGVPDRFSGSGSGTDFTLKISRVEAEDVGVYYCFQGSHVPLTFGQGTKLEIK
notes: as for B1
B4: toripalimab Fab H.F112A (Fab, V domains shown)
VH: QGQLVQSGAEVKKPGASVKVSCKASGYTFTDYEMHWVRQAPIHGLEWIGVIESETGGTAYNQKFKGRVTITADKSTSTAYMELSSLRSEDTAVYYCAREGITTVATTYYWYADVWGQGTTVTVSS
VL: DVVMTQSPLSLPVTLGQPASISCRSSQSIVHSNGNTYLEWYLQKPGQSPQLLIYKVSNRFSGVPDRFSGSGSGTDFTLKISRVEAEDVGVYYCFQGSHVPLTFGQGTKLEIK
notes: as for B1
B5: toripalimab Fab H.W110A (Fab, V domains shown)
VH: QGQLVQSGAEVKKPGASVKVSCKASGYTFTDYEMHWVRQAPIHGLEWIGVIESETGGTAYNQKFKGRVTITADKSTSTAYMELSSLRSEDTAVYYCAREGITTVATTYYAYFDVWGQGTTVTVSS
VL: DVVMTQSPLSLPVTLGQPASISCRSSQSIVHSNGNTYLEWYLQKPGQSPQLLIYKVSNRFSGVPDRFSGSGSGTDFTLKISRVEAEDVGVYYCFQGSHVPLTFGQGTKLEIK
notes: as for B1
B6: toripalimab Fab H.E33Y (Fab, V domains shown)
VH: QGQLVQSGAEVKKPGASVKVSCKASGYTFTDYYMHWVRQAPIHGLEWIGVIESETGGTAYNQKFKGRVTITADKSTSTAYMELSSLRSEDTAVYYCAREGITTVATTYYWYFDVWGQGTTVTVSS
VL: DVVMTQSPLSLPVTLGQPASISCRSSQSIVHSNGNTYLEWYLQKPGQSPQLLIYKVSNRFSGVPDRFSGSGSGTDFTLKISRVEAEDVGVYYCFQGSHVPLTFGQGTKLEIK
notes: as for B1
B7: toripalimab Fab H.Y108A (Fab, V domains shown)
VH: QGQLVQSGAEVKKPGASVKVSCKASGYTFTDYEMHWVRQAPIHGLEWIGVIESETGGTAYNQKFKGRVTITADKSTSTAYMELSSLRSEDTAVYYCAREGITTVATTAYWYFDVWGQGTTVTVSS
VL: DVVMTQSPLSLPVTLGQPASISCRSSQSIVHSNGNTYLEWYLQKPGQSPQLLIYKVSNRFSGVPDRFSGSGSGTDFTLKISRVEAEDVGVYYCFQGSHVPLTFGQGTKLEIK
notes: as for B1

These binders were tested against T1, human programmed cell death protein 1 (hPD-1) C93S (aa 24-167) (Homo sapiens, UniProt Q15116, C93S) (assay: SPR; Carterra LSA; Fab from the ammonium sulfate precipitate of the culture supernatant immobilised on a NiHC200M chip; hPD-1 (1-1024 nM) or mPD-1-Fc (4-1024 nM) as analyte, fourfold dilution series, no regeneration; HBS-EP pH 7.4, 25 °C; medians over the spots of a construct, KD = koff/kon). Conditions: one partner purified.
T1 construct: made as a fusion with a TEV site and human Fc; the Fc was cut off with TEV protease; source: Expi293F, purified (Protein A, TEV cleavage of Fc, SEC; monomer fractions); not shown: Fc (human), C-terminal, cleaved
T1 sequence (Q15116 24-167 C93S): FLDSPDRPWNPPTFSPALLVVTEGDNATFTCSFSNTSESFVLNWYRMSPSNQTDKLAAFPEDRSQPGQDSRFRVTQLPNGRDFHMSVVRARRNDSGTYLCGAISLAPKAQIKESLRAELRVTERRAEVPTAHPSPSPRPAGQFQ
Outline: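 Fabs, ammonium sulfate-precipitated from Brevibacillus supernatants and redissolved in HBS-EP, were captured in duplicate on a NiHC200M chip on a Carterra LSA at 25 °C. Fourfold series of human PD-1 (1–1024 nM) or mouse PD-1-Fc (4–1024 nM) were run without regeneration, with association for 10 min and dissociation for 5 min. Rates were fitted with the kdka model, choosing the better of slow- or fast-dissociation settings, and unconfirmed binders were given kon 10^3 […] and koff 10^−2 s^−1. The dissociation constant KD is koff/kon based on per-construct medians.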
B1 was tested, and the Kd was under 2.91 nM, the koff was under 1e-05 s⁻¹ and the kon was 3430 M⁻¹ s⁻¹.
B2 showed a Kd of under 1.79 nM, a koff of under 1e-05 s⁻¹ and a kon of 5600 M⁻¹ s⁻¹.
B3 showed a Kd of 1610 nM, a koff of 0.0601 s⁻¹ and a kon of 37200 M⁻¹ s⁻¹.
For B4, the Kd was 6.2 nM, the koff was 2.72e-05 s⁻¹ and the kon was 4390 M⁻¹ s⁻¹.
Work on B5 yielded a Kd of under 2.43 nM, a koff of under 1e-05 s⁻¹ and a kon of 4120 M⁻¹ s⁻¹.
Work on B6 yielded a Kd of 430 nM, a koff of 0.00629 s⁻¹ and a kon of 14600 M⁻¹ s⁻¹.
Work on B7 yielded a Kd of 48.6 nM, a koff of 0.000235 s⁻¹ and a kon of 4840 M⁻¹ s⁻¹.
